Measurements as given in paper PMC5371411 (mBio, 2017).
Values joined by “and” are separate entries in the source; they are usually repeats but may differ in a detail not shown here. Equal entries are not always repeated.

Experiments:
[1] = biological target: T1, EspC His-Middle segment (enteropathogenic Escherichia coli (EPEC), UniProt Q9EZE7 382-708); assay: SPR; His-EspA amine-coupled (EDC-NHS, 10 mM sodium acetate pH 4.0) to a planar polyethylene glycol/carboxyl sensor slide; analyte perfused in PBST at 50 µl/min; Reichert SR7500DC; conditions: both partners purified
T1 construct: also called Middle fragment; source: E. coli BL21(D3)pLysS, pRSET-A, purified (Ni-NTA agarose); not shown: 6xHis, N-terminal, kept
T1 sequence: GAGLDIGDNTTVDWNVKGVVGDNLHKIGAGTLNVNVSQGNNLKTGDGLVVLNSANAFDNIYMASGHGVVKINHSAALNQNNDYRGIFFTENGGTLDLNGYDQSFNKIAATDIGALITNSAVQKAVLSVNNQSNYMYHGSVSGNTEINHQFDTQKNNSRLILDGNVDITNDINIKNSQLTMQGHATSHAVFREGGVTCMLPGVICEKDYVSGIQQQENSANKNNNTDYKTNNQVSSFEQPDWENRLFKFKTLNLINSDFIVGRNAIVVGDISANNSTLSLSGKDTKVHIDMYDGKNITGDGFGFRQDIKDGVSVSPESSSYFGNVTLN

[2] = biological target: the molecule itself; assay: as above
[3] = biological target: EspCS256I (enteropathogenic Escherichia coli (EPEC), UniProt Q9EZE7 54-1018, S256I); assay: pull-down; conditions: both partners purified
[4] = biological target: T2, His-EspC (enteropathogenic Escherichia coli (EPEC), UniProt Q9EZE7 55-1032); assay: SPR; His-EspC coupled by its His tag and EDC-NHS on a nickel-nitrilotriacetic acid sensor slide; His-EspA or His-EspA/His-EspD perfused in PBST at 50 µl/min; Reichert SR7500DC; conditions: both partners purified
T2 construct: also called whole EspC passenger domain tagged with 6xHis; whole EspC protein (SPR); source: E. coli BL21(D3)pLysS, pRSET-A, purified (Ni-NTA agarose); not shown: 6xHis, N-terminal, kept
T2 sequence: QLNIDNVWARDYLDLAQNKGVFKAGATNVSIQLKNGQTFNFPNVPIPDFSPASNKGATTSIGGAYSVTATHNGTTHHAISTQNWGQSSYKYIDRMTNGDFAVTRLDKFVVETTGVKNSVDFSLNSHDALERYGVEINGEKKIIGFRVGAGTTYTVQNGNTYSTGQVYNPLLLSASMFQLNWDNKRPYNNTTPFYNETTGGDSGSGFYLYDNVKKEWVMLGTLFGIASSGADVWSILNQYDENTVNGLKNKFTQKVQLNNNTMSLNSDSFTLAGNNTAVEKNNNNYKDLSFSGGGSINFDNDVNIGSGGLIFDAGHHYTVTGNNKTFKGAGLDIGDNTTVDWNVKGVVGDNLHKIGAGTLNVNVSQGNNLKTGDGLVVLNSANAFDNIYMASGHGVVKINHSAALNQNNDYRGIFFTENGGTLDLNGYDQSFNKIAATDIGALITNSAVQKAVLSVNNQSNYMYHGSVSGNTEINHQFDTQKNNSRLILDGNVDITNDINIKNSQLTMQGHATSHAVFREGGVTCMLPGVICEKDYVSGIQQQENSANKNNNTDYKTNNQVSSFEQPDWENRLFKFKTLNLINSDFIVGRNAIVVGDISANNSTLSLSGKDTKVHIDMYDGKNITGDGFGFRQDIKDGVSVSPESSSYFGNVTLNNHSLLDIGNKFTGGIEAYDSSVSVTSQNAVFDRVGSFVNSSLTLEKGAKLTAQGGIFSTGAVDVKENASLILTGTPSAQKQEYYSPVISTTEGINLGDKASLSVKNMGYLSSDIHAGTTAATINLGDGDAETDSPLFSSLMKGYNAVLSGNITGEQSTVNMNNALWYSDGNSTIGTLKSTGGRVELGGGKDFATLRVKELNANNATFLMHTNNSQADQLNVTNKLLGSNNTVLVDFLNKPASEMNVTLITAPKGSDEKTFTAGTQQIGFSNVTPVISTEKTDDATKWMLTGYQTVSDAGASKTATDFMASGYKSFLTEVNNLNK

B1: His-EspA (natural protein)
chain: MDTSTTASVASANASTSTSMAYDLGSMSKDDVIDLFNKLGVFQAAILMFAYMYQAQSDLSIAKFADMNEASKESTTAQKMANLVDAKIADVQSSSDKNAKAQLPDEVISYINDPRNDITISGIDNINAQLGAGDLQTVKAAISAKANNLTTTVNNSQLEIQQMSNTLNLLTSARSDMQSLQYRTISGISLGK
notes: also called EPEC secreted protein A
[1]
  Kd: 3.45 nM and 3.43 nM
[2]
  Kd: 2.64 nM
[3]
  binding result: binds
[4]
  Kd: 25.1 nM
